Data on 2 molecules can be found in patent US6723833.

The target of assay [1] is human IgE bound to FcεRI (IgE-loaded FcεRI α-chain on CHO 3D10 cells) (human) (UniProt P01854). The assay is described as follows: FACS on IgE-loaded CHO 3D10 cells (FIG. 4); isotype control.
Assay [2] shares this target. The assay is described as follows: FACS on IgE-loaded CHO 3D10 cells (FIG. 4).
For assay [3], the target named is membrane IgE on U266B1 cells (human) (UniProt P01854). The assay is described as follows: FACS on U266B1 cells (membrane IgE+).
The target of assay [4] is human IgE (affinity purified from U266B1 myeloma culture supernatant) (human) (UniProt P01854). The assay is described as follows: soluble receptor assay: inhibition of biotin-IgE binding to plate-coated FcεRI α-chain IgG chimera.
Assay [5] shares this target. The description is as above. This is another data set of the same source.
Assay [6] shares this target. The assay is described as follows: equilibrium binding of 125I-IgE, Scatchard analysis.
Assay [7] concerns the target human IgE bound to FcεRI (IgE-loaded FcεRI α-chain on CHO 3D10 cells) (human) (UniProt P01854). The assay is described as follows: cell-based or functional assay.

Read-outs that look alike come from different tables or passages of the source.

Sequence of human IgE bound to FcεRI (IgE-loaded FcεRI α-chain on CHO 3D10 cells) (human) (P01854 whole entry, chain 1 of 2): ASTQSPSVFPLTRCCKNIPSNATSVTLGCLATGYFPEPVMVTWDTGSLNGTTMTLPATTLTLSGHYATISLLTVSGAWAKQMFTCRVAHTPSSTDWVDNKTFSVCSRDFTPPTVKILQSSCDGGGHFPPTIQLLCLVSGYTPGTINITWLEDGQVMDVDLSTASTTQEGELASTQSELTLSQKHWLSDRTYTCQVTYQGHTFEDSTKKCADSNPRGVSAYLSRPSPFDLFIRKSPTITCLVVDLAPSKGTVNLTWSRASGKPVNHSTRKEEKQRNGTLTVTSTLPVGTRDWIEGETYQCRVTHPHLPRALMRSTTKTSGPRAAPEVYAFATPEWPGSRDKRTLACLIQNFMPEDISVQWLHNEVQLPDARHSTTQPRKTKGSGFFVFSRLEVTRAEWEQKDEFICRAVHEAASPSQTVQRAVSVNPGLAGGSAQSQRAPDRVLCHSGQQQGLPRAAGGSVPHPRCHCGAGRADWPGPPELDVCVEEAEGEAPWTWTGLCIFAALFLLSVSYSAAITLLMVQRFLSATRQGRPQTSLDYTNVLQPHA
Sequence of human IgE bound to FcεRI (IgE-loaded FcεRI α-chain on CHO 3D10 cells) (human) (P12319 26-257, chain 2 of 2, further chain): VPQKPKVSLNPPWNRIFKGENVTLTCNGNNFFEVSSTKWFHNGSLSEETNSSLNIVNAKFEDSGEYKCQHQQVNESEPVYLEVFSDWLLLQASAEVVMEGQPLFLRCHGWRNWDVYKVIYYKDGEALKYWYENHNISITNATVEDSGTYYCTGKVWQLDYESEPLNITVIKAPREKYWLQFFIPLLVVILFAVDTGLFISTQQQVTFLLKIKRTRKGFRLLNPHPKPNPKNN
Sequence of human IgE (affinity purified from U266B1 myeloma culture supernatant) (human) (P01854 whole entry, form in doubt, one chain of several): as the sequence (P01854 whole entry, chain 1 of 2) above
Sequence of membrane IgE on U266B1 cells (human) (P01854 whole entry, one chain of several): as the sequence (P01854 whole entry, chain 1 of 2) above

For the molecule MOPC21 (antibody), the nonspecific background binding in assay [1] came to 10%. The molecule further gave a mean channel fluorescence at 0.1 µg/ml (mean channel fluorescence) in assay [2] of 7.3.

B1: MaE11 (antibody, mouse IgG1, V domains shown)
VH: DVQLQESGPGLVKPSQSLSLACSVTGYSITSGYSWNWIRQFPGNKLEWMGSITYDGSSNYNPSLKNRISVTRDTSQNQFFLKLNSATAEDTATYYCARGSHYFGHWHFAVWGAGTTVTVSS
VL: DIQLTQSPASLAVSLGQRATISCKASQSVDYDGDSYMNWYQQKPGQPPILLIYAASYLGSEIPARFSGSGSGTDFTLNIHPVEEEDAATFYCQQSHEDPYTFGAGTKLEIK
In assay [3], B1 had an EC50 of 0.15 µg/mL. For the same molecule, in assay [4], the IC50 amounted to 0.179 µg/mL, the ratio F(ab)-X/F(ab)-2 worked out at 0.03 and the ratio F(ab)-X/MaE11 was determined as 1. In assay [5], the IC50 came to 0.449 µg/mL, the ratio Variant X/IgG1-2 was 0.06 and the ratio Variant X/MaE11 was found to be 1. For the same molecule, the Kd in assay [6] turned out to be 30 nM. The same molecule yielded a mean channel fluorescence at 0.1 µg/ml (mean channel fluorescence) in assay [2] of 6.4. In addition, the PBL histamine release (EC50), IgE-loaded peripheral blood basophils in assay [7] was greater than 100 µg/mL.
